Reference: PMC9482650, “Quantitative fragmentomics allow affinity mapping of interactomes” (Nature Communications, 2022)
Each block holds one binder with its values, some of them ahead of it.

Columns and labels:
Assay in all cases: holdup assay
Parameters in all cases: key: below the threshold = too weak to quantify, mostly under pKd 3.1 to 4
[1] = target: T1, TIAM2, Q8IVF5
T1 sequence (Q8IVF5 885-986, limits assumed, looked up): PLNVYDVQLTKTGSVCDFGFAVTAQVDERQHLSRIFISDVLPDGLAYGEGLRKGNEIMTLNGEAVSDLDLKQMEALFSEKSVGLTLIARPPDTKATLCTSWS

[2] = target: T2, APBA3_1, O96018
T2 sequence (O96018 389-490, limits assumed, looked up): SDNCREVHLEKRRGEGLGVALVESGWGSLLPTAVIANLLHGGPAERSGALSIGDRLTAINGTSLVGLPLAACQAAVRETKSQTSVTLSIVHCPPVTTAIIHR

[3] = target: GRID2IP_2, A4D2P6
[4] = target: T3, HTRA3, P83110
T3 sequence (P83110 354-453, limits assumed, looked up): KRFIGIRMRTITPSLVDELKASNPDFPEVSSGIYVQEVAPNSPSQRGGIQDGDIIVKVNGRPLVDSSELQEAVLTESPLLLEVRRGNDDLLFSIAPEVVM

[5] = target: GRIP2_7, Q9C0E4
[6] = target: T4, CARD11, Q9BXL7
T4 sequence (Q9BXL7 662-765, limits assumed, looked up): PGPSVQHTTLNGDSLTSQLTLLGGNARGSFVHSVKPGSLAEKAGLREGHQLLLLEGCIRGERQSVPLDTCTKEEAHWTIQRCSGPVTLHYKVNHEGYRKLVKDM

[7] = target: DLG1_3, Q12959
[8] = target: T5, SYNJ2BP, P57105
T5 sequence (P57105 8-110, limits assumed, looked up): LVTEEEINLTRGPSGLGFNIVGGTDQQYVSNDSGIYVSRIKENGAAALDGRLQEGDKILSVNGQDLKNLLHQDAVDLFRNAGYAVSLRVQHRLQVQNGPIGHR

[9] = target: T6, MPDZ_12, O75970
T6 sequence (O75970 1857-1958, limits assumed, looked up): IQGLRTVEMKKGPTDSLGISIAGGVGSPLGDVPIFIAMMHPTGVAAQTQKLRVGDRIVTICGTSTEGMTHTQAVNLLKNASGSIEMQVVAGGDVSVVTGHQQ

[10] = target: LDB3, O75112
[11] = target: MAGI2_5, Q86UL8
[12] = target: GORASP1, Q9BQQ3
[13] = target: T7, SNTA1, Q13424
T7 sequence (Q13424 82-180, limits assumed, looked up): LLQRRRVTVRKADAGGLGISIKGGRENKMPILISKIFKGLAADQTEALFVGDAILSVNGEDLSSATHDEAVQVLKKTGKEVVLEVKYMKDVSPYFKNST

[14] = target: GORASP2, Q9H8Y8
[15] = target: DLG2_2, Q15700
[16] = target: T8, SNTG2, Q9NY99
T8 sequence (Q9NY99 68-166, limits assumed, looked up): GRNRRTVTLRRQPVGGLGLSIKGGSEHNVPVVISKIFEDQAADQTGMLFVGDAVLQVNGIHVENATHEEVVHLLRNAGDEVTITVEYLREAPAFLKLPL

[17] = target: HTRA2, O43464
[18] = target: SCRIB_1, Q14160
[19] = target: GRID2IP_1, A4D2P6
[20] = target: T9, LIN7C, Q9NUP9
T9 sequence (Q9NUP9 88-185, limits assumed, looked up): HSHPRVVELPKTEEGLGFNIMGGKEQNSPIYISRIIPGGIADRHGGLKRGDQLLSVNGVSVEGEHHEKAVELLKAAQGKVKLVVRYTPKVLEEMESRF

[21] = target: NHERF2_2, Q15599
[22] = target: T10, GRIP1_7, Q9Y3R0
T10 sequence (Q9Y3R0 999-1096, limits assumed, looked up): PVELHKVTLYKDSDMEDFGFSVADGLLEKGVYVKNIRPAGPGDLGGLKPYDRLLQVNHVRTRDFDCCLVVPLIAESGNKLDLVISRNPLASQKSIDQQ

[23] = target: FRMPD2_2, Q68DX3
[24] = target: MAGI2_2, Q86UL8
[25] = target: AHNAK1, Q09666
[26] = target: DLG4_3, P78352
[27] = target: GRIP2_5, Q9C0E4
[28] = target: MAST1, Q9Y2H9
[29] = plain residues with an end cap or a label only (N-terminal biotin on a linker: ttds)
[30] = plain residues with an end cap or a label only (N-terminal biotin on a linker: ahx)
[31] = plain residues with an end cap or a label only (N-terminal biotin on a linker: ado-ado)

Chain of DLG4_3, P78352 (P78352 306-403): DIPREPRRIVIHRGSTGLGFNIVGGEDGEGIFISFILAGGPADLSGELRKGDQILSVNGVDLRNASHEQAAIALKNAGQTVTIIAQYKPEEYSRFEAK
Chain of MAGI2_5, Q86UL8 (Q86UL8 915-1017): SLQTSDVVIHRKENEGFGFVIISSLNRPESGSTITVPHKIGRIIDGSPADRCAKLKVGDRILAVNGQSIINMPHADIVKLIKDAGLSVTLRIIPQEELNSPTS
Chain of GRIP2_7, Q9C0E4 (Q9C0E4 934-1023): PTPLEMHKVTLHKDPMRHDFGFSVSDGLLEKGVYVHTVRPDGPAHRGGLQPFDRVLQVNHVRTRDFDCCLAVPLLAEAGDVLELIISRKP
Chain of MAST1, Q9Y2H9 (Q9Y2H9 962-1065): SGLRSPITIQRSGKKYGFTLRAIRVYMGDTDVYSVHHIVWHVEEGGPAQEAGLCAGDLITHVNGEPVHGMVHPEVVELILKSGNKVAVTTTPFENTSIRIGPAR
Chain of GORASP1, Q9BQQ3 (Q9BQQ3 1-208): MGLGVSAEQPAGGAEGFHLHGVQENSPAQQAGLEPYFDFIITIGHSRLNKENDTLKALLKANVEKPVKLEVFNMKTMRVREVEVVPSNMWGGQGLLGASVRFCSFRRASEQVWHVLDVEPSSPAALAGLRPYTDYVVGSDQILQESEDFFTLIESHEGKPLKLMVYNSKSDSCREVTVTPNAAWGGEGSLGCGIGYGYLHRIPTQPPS
Chain of DLG1_3, Q12959 (Q12959 457-571): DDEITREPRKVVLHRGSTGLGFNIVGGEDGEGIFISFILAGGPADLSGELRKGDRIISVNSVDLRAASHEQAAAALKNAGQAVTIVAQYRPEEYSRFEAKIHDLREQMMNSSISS
Chain of NHERF2_2, Q15599 (Q15599 142-238): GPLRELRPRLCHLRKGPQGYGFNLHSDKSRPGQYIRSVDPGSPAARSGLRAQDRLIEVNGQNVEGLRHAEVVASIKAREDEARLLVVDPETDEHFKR
Chain of GRID2IP_1, A4D2P6 (A4D2P6 1-87): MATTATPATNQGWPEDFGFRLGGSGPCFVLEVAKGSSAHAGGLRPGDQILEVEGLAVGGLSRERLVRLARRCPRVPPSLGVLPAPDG
Chain of LDB3, O75112 (O75112 1-94): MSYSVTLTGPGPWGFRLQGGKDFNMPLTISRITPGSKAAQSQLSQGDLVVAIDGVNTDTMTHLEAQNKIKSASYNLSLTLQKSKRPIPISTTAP
Chain of HTRA2, O43464 (O43464 355-458): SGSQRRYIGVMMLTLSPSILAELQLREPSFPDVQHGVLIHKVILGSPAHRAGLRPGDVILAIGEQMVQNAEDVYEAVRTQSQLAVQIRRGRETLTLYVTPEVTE
Chain of GRIP2_5, Q9C0E4 (Q9C0E4 544-642): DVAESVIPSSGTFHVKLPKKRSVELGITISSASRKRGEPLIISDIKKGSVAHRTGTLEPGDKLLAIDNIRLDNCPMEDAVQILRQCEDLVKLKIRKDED
Chain of SCRIB_1, Q14160 (Q14160 718-814): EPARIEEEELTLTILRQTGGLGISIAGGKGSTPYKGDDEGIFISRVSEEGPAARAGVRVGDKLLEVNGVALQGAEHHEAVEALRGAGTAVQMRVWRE
Chain of MAGI2_2, Q86UL8 (Q86UL8 410-522): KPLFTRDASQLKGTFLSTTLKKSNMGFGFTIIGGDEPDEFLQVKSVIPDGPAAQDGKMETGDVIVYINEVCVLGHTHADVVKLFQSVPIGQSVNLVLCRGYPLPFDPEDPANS
Chain of FRMPD2_2, Q68DX3 (Q68DX3 944-1038): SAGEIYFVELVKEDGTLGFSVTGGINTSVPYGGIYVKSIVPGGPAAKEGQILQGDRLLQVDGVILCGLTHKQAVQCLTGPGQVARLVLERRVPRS
Chain of GRID2IP_2, A4D2P6 (A4D2P6 272-370): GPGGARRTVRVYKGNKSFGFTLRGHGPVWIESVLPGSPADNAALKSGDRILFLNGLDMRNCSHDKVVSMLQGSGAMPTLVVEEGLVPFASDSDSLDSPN
Chain of DLG2_2, Q15700 (Q15700 189-283): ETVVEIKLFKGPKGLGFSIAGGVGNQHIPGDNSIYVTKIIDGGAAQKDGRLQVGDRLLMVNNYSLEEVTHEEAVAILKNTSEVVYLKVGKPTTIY

pKd [1, 31]: 4.02
pKd [2, 31]: below the threshold
pKd [3, 31]: 4.05
pKd [4, 31]: below the threshold
pKd [5, 31]: below the threshold
pKd [6, 31]: below the threshold
pKd [7, 31]: 4.24
pKd [8, 31]: 4.18
pKd [9, 31]: 3.76
pKd [10, 31]: 3.66
pKd [11, 31]: below the threshold
pKd [12, 31]: 3.53
pKd [13, 31]: 4.2
pKd [14, 31]: 4.19
pKd [15, 31]: 4.65
pKd [16, 31]: 3.52
pKd [17, 31]: below the threshold
pKd [18, 31]: 3.61
pKd [19, 31]: below the threshold
pKd [20, 31]: 3.68
pKd [21, 31]: below the threshold
pKd [22, 31]: below the threshold
pKd [23, 31]: below the threshold
pKd [24, 31]: 4.48
pKd [25, 31]: below the threshold
pKd [26, 31]: 4.17
pKd [27, 31]: below the threshold
pKd [28, 31]: 4.6
Binder: RGGFGRQTQI [NCBP2L, A6PVI3]

pKd [1, 31]: 4.34
pKd [2, 31]: below the threshold
pKd [3, 31]: below the threshold
pKd [4, 31]: 4.64
pKd [5, 31]: 4.8
pKd [6, 31]: below the threshold
pKd [7, 31]: below the threshold
pKd [8, 31]: below the threshold
pKd [9, 31]: below the threshold
pKd [10, 31]: below the threshold
pKd [11, 31]: below the threshold
pKd [12, 31]: 4.12
pKd [13, 31]: 3.78
pKd [14, 31]: 4.47
pKd [15, 31]: below the threshold
pKd [16, 31]: below the threshold
pKd [17, 31]: 3.51
pKd [18, 31]: below the threshold
pKd [19, 31]: below the threshold
pKd [20, 31]: 4.08
pKd [21, 31]: below the threshold
pKd [22, 31]: 4.55
pKd [23, 31]: 3.62
pKd [24, 31]: 4.02
pKd [25, 31]: below the threshold
pKd [26, 31]: below the threshold
pKd [27, 31]: below the threshold
pKd [28, 31]: below the threshold
Binder: QKNKDKEYYV [NRXN3_rs746444206, Q9Y4C0]

The remaining lines, values behind:

Binder: DPLTPSRSQL [DGKK, Q5KSL6]
pKd [1, 29]: below the threshold
pKd [2, 29]: below the threshold
pKd [3, 29]: 4.1
pKd [4, 29]: below the threshold
pKd [5, 29]: 3.64
pKd [6, 29]: below the threshold
pKd [7, 29]: below the threshold
pKd [8, 29]: below the threshold
pKd [9, 29]: below the threshold
pKd [10, 29]: below the threshold
pKd [11, 29]: below the threshold
pKd [12, 29]: below the threshold
pKd [13, 29]: below the threshold
pKd [14, 29]: 4.21
pKd [15, 29]: 3.59
pKd [16, 29]: 3.84
pKd [17, 29]: below the threshold
pKd [18, 29]: below the threshold
pKd [19, 29]: below the threshold
pKd [20, 29]: below the threshold
pKd [21, 29]: below the threshold
pKd [22, 29]: below the threshold
pKd [23, 29]: below the threshold
pKd [24, 29]: below the threshold
pKd [25, 29]: below the threshold
pKd [26, 29]: below the threshold
pKd [27, 29]: below the threshold
pKd [28, 29]: 4.16

Binder: TGDTLEKFVEGL [CBP, Q92793]
pKd [1, 29]: below the threshold
pKd [2, 29]: below the threshold
pKd [3, 29]: below the threshold
pKd [4, 29]: below the threshold
pKd [5, 29]: below the threshold
pKd [6, 29]: below the threshold
pKd [7, 29]: below the threshold
pKd [8, 29]: 3.55
pKd [9, 29]: below the threshold
pKd [10, 29]: below the threshold
pKd [11, 29]: below the threshold
pKd [12, 29]: below the threshold
pKd [13, 29]: below the threshold
pKd [14, 29]: below the threshold
pKd [15, 29]: below the threshold
pKd [16, 29]: below the threshold
pKd [17, 29]: below the threshold
pKd [18, 29]: below the threshold
pKd [19, 29]: below the threshold
pKd [20, 29]: below the threshold
pKd [21, 29]: below the threshold
pKd [22, 29]: below the threshold
pKd [23, 29]: below the threshold
pKd [24, 29]: below the threshold
pKd [25, 29]: below the threshold
pKd [26, 29]: below the threshold
pKd [27, 29]: below the threshold
pKd [28, 29]: below the threshold

Binder: HSGSYLVTSV [APC, P25054]
pKd [1, 30]: below the threshold
pKd [2, 30]: below the threshold
pKd [3, 30]: 4.41
pKd [4, 30]: below the threshold
pKd [5, 30]: below the threshold
pKd [6, 30]: below the threshold
pKd [7, 30]: 4.88
pKd [8, 30]: 4.81
pKd [9, 30]: 3.63
pKd [10, 30]: below the threshold
pKd [11, 30]: 4.63
pKd [12, 30]: 3.61
pKd [13, 30]: 3.64
pKd [14, 30]: 4.41
pKd [15, 30]: 5.11
pKd [16, 30]: 3.59
pKd [17, 30]: below the threshold
pKd [18, 30]: 5.04
pKd [19, 30]: below the threshold
pKd [20, 30]: 3.72
pKd [21, 30]: below the threshold
pKd [22, 30]: below the threshold
pKd [23, 30]: 4.61
pKd [24, 30]: 4.18
pKd [25, 30]: below the threshold
pKd [26, 30]: 4.5
pKd [27, 30]: below the threshold
pKd [28, 30]: 4.22
